Measurements as given in patent US20180023071A1 (PRONASCI, published 2018).
Bridges are numbered along the chain shown (N, C = ends). Where no end group is shown, it is not given here.

Biological target: human Low Density Lipoprotein receptor (hLDL-R) (human, UniProt P01130 22-860)
Experiment: cell-based or functional assay

human Low Density Lipoprotein receptor (hLDL-R), sequence (P01130 22-860): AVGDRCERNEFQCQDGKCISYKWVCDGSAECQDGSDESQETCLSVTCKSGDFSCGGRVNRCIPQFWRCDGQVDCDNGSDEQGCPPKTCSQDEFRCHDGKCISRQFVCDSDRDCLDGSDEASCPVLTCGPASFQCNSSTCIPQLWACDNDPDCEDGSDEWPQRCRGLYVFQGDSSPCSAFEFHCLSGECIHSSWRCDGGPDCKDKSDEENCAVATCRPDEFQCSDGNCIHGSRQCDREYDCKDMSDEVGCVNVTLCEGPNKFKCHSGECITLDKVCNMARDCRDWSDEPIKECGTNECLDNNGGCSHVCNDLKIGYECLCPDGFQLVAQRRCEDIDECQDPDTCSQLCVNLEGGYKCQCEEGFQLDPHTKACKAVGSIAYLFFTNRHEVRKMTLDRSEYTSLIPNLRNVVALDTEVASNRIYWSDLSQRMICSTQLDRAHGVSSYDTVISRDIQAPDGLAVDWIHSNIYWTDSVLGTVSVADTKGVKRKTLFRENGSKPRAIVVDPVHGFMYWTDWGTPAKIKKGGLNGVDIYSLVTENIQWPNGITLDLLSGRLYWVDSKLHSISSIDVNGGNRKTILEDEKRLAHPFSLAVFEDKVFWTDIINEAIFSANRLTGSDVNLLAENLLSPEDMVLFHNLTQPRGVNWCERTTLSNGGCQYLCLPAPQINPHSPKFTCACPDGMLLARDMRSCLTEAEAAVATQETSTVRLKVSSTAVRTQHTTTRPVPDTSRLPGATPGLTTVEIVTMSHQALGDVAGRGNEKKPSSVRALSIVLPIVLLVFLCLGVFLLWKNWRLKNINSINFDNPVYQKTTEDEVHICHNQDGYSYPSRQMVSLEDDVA

B1: CP3 (Loop-3 peptide), S-S bridged cyclic hPCSK9 365-384 (peptide)
peptide: GEDIIGASSDCSTCFVSQSG
modifications: disulfide 11-14
B1 was tested, and the “LDL-R level in HepG2 cells (western blot, relative to TR), CP3 at 50 µM” value was about 3.5 fold.
